Publication PMC5721652, “Nanobodies targeting conserved epitopes on the major outer membrane protein of Campylobacter as potential tools for control of Campylobacter colonization” (Veterinary Research, 2017)

The binders below were run against T1, major outer membrane protein (MOMP) of Campylobacter jejuni KC40 (Campylobacter jejuni KC40 (stand-in: …, UniProt P80672, strain)) (assay: ELISA; purified MOMP coated at 1 µg/mL; His-tagged nanobody at 50 µg/mL, or tenfold serial dilutions of His-tagged Nb84 (saturation binding); detected with anti-Histidine tag antibody). Conditions: both partners purified.
T1 construct: major outer membrane protein (MOMP, porA) of C. jejuni strain KC40; the printed entry P80672 is that of strain NCTC 11168, to which the peptides of the pull-down matched; The legends call the purified protein a MOMP monomer; the introduction describes MOMP as a trimeric porin; Kept in 0.6% octyl-POE after purification; also called purified MOMP monomer; native MOMP; source: purified from C. …

Row | Binder | binding result
1 | Nb34, His-tagged (VHH, One of the six nanobodies with less broad specificity; also called anti-Campylobacter nanobody; not shown: His-tag, C-terminal, kept) VHH: QVQLQESGGGLVQAGGSLRLSCAASGRTSSSYAMGWFRQAPGKEREFVTAISWNGSKAYYSDSVKGRFTISRDNAKNTVYLQMNSLKPEDTAVYYCAQGAYRVVADPGEYDYWGQGTQVTVSS | binds
2 | Nb45, His-tagged (VHH, One of the six nanobodies with less broad specificity; also called anti-Campylobacter nanobody; not shown: His-tag, C-terminal, kept) VHH: QVQLQESGGGLVQAGGSLRLACVASSTIFSINNMAWYRQAPGKQRELVARITAGGNTNYADSVKGRFTISKDKGKNTVRLQMNSLKPEDTGVYYCKCGGCGTPYSLSEDYWGQGTQVTVSS | binds
3 | Nb32, His-tagged (VHH, One of the six nanobodies with less broad specificity; also called anti-Campylobacter nanobody; not shown: His-tag, C-terminal, kept) VHH: QVQLQESGGGLVQAGDSLRLSCAASGGTFSNYVLGWFRQAPGKEREFVAAIRWSGERTYYADSVKGRFTISSDNAKYRQVTVYLEMNSLKPEDTAVYYCAARAPNYYSDSQPPVTLSEYKVWGQGTQVTVSS | binds
4 | Nb15, His-tagged (VHH, One of the six nanobodies with less broad specificity; its name is printed only in the legend of Additional file 5; also called anti-Campylobacter nanobody; not shown: His-tag, C-terminal, kept) VHH: QVQLQESGGGLVQPGGSLRLSCAASGRTFRSYDMGWFRQAPGKEREFVAASAWSAGRTIYKNSVKGRFTISRDNTKDTMYLQMNDLKPEDTAVYFCAADRNPPPIYNEFYYYRASAYDYWGQGTQVTVSS | binds
5 | Nb63, His-tagged (VHH, One of the six nanobodies with less broad specificity; its name is printed only in the legend of Additional file 5; also called anti-Campylobacter nanobody; not shown: His-tag, C-terminal, kept) VHH: QVQLQESGGGLVQPGGSLRLSCVASGSTFAINVMGWYRRAPGKQRELVATVTSGSTTYSRVRSSDTTYADSVKGRFTISRDNAKNMVYLQMNSLKPEDTAVYYCNARTRNTIATSDGMDYWGKGTQVTVSS | binds
6 | Nb48, His-tagged (VHH, One of the six nanobodies with less broad specificity; its name is printed only in the legend of Additional file 5; also called anti-Campylobacter nanobody; not shown: His-tag, C-terminal, kept) VHH: QVQLQESGGGSVQAGESLRLACAASGSILSINIMRWYRQAPGKQRELVATIGRSGNTDLADFAKGRFTGSRDNGKNTVYLQMNNLKPEDTAVYYCNALLTTLSAQTGVYWGQGTQVTVSS | binds

These binders were tested against T1, major outer membrane protein (MOMP) of … (assay: MST; saturation: Dylight 650 labelled nanobody constant at 32 nM, twofold serial dilutions of MOMP from 0.3 nM to 5.0 µM; 20 mM sodium phosphate pH 7.6, 150 mM NaCl, 0.6% octyl-POE). Conditions: both partners purified.

Row | Binder | Kd [nM]
7 | Nb22, fluorescently labelled (VHH, as the VHH of m3; probably the C-terminally His-tagged one; also called fluorescently labelled Nb22; source: E. coli, purified; labelled with Dylight 650 NHS Ester) VHH: QVQLQESGGGLVQPGGSLRLSCAVSRTIFNFNNMGWYRQPPGKPRELVARITMNGRTDYADPVKGRFTISRDSAKNTLALQMNDLKGDDTAVYYCAARGAVRTGNLMPTDYWGQGTQVTVSS | 118 ± 48
8 | Nb84, fluorescently labelled (VHH, as the VHH of m7; probably the C-terminally His-tagged one; also called fluorescently labelled Nb84; labelled Nb84; source: E. coli, purified; labelled with Dylight 650 NHS Ester) VHH: QVQLQESGGGLVQAGGSLRLSCKASGTIISINNMGWYRRSPGKERDMVARIFSSGTINYTDSVKGRFTISRDNAKNTVYLEMNSLKPEDTAIYYCNARLTTTAMGTIPNSWGQGTQVTVSS | 422 ± 159

The binders below were run against T1, major outer membrane protein (MOMP) of … (assay: pull-down; His-tagged nanobody (20 µL of 1.0 mg/mL) mixed with 500 µL outer membrane proteins of C. jejuni KC40 (1.2 mg/mL), 2 h at 4 °C, captured overnight at 4 °C on Co2+-coated Dynabeads; eluted band cut from a silver-stained gel and identified by LC-MS/MS). Conditions: one partner purified.

Row | Binder | binding result
9 | Nb5, His-tagged (VHH, Cloned in pHen6C; one of the six nanobodies with broad specificity; also called anti-Campylobacter nanobody; not shown: His-tag, C-terminal, kept) VHH: QVQLQESGGGLVQAGGSLRLSCAASGTIISLNSMGWYRQAPGKQRELVAALTSGGTTNYADSVKGRFTISRVNAKNTVYLQMNSLKPEDTAVYYCNAKLITTAQGMVLASWGQGTQVTVSS | binds

These binders were tested against T1, major outer membrane protein (MOMP) of … (assay: far-Western, overlay or dot blot; purified MOMP run on a non-denaturing gel, transferred to PVDF, incubated with 5 µg/mL His-tagged nanobody for 1 h at 4 °C, detected with anti-Histidine tag antibody). Conditions: both partners purified.

Row | Binder | binding result
10 | Nb23, His-tagged (VHH, Cloned in pHen6C; one of the six nanobodies with broad specificity; also called anti-Campylobacter nanobody; not shown: His-tag, C-terminal, kept) VHH: QVQLQESGGGLVQPGGSLRLSCAASGTIDNFNGMGWYRQAPGKQREWLARITMNGRTIYAESVEGRFTISRDKVKNTLALQMNSLKPEDTAVYYCNARGVLTPRGIHDYWGQGTQVTVSS | binds
11 | Nb24, His-tagged (VHH, Cloned in pHen6C; one of the six nanobodies with broad specificity; also called anti-Campylobacter nanobody; not shown: His-tag, C-terminal, kept) VHH: QVQLQESGGGLVQPGGSLRLSCAASGRTFSRFSDNYVMGWFRQAPGKEREVVGAIRWSVASTYYADFVKGRFTISRDSAMNTMYLQMNNLKPEDTAVYYCATKFSGPINGGQTSYNYWGQGTQVTVSS | binds
12 | Nb49, His-tagged (VHH, Cloned in pHen6C; one of the six nanobodies with broad specificity; also called anti-Campylobacter nanobody; not shown: His-tag, C-terminal, kept) VHH: QVQLQESGGGLVQPGWSLRLSCAASSIFEINAMGWYRQPPGKQRERVATITDGFGTNYADSVKGRFTISRDNAKNTVYLQMNSLRPEDTAVYYCSAQRTVPYKMTYWGQGTQVTVSS | binds

These binders were tested against T1, major outer membrane protein (MOMP) of … (assay: ELISA; competition: MOMP coated at 1 µg/mL; serial dilutions of strep-tagged nanobody and a constant 5 x 10^-2 µg/mL of His-tagged Nb84 added simultaneously; bound His-tagged Nb84 detected with anti-Histidine tag antibody). Conditions: both partners purified.

Row | Binder | binding result
13 | Nb34, strep-tagged (VHH, as the VHH of m10; also called strep-tagged Nb34; source: E. coli, purified (StrepTrap HP); not shown: strep-tag, C-terminal, kept) VHH: QVQLQESGGGLVQAGGSLRLSCAASGRTSSSYAMGWFRQAPGKEREFVTAISWNGSKAYYSDSVKGRFTISRDNAKNTVYLQMNSLKPEDTAVYYCAQGAYRVVADPGEYDYWGQGTQVTVSS | binds
14 | Nb45, strep-tagged (VHH, as the VHH of m11; also called strep-tagged Nb45; source: E. coli, purified (StrepTrap HP); not shown: strep-tag, C-terminal, kept) VHH: QVQLQESGGGLVQAGGSLRLACVASSTIFSINNMAWYRQAPGKQRELVARITAGGNTNYADSVKGRFTISKDKGKNTVRLQMNSLKPEDTGVYYCKCGGCGTPYSLSEDYWGQGTQVTVSS | binds
15 | Nb32, strep-tagged (VHH, as the VHH of m9; also called strep-tagged Nb32; source: E. coli, purified (StrepTrap HP); not shown: strep-tag, C-terminal, kept) VHH: QVQLQESGGGLVQAGDSLRLSCAASGGTFSNYVLGWFRQAPGKEREFVAAIRWSGERTYYADSVKGRFTISSDNAKYRQVTVYLEMNSLKPEDTAVYYCAARAPNYYSDSQPPVTLSEYKVWGQGTQVTVSS | binds
16 | Nb15, strep-tagged (VHH, as the VHH of m8; also called strep-tagged Nb15; source: E. coli, purified (StrepTrap HP); not shown: strep-tag, C-terminal, kept) VHH: QVQLQESGGGLVQPGGSLRLSCAASGRTFRSYDMGWFRQAPGKEREFVAASAWSAGRTIYKNSVKGRFTISRDNTKDTMYLQMNDLKPEDTAVYFCAADRNPPPIYNEFYYYRASAYDYWGQGTQVTVSS | binds
17 | Nb23, strep-tagged (VHH, as the VHH of m4; also called strep-tagged Nb23; source: E. coli, purified (StrepTrap HP); not shown: strep-tag, C-terminal, kept) VHH: QVQLQESGGGLVQPGGSLRLSCAASGTIDNFNGMGWYRQAPGKQREWLARITMNGRTIYAESVEGRFTISRDKVKNTLALQMNSLKPEDTAVYYCNARGVLTPRGIHDYWGQGTQVTVSS | binds
18 | Nb24, strep-tagged (VHH, as the VHH of m5; also called strep-tagged Nb24; source: E. coli, purified (StrepTrap HP); not shown: strep-tag, C-terminal, kept) VHH: QVQLQESGGGLVQPGGSLRLSCAASGRTFSRFSDNYVMGWFRQAPGKEREVVGAIRWSVASTYYADFVKGRFTISRDSAMNTMYLQMNNLKPEDTAVYYCATKFSGPINGGQTSYNYWGQGTQVTVSS | binds
19 | Nb49, strep-tagged (VHH, as the VHH of m6; also called strep-tagged Nb49; source: E. coli, purified (StrepTrap HP); not shown: strep-tag, C-terminal, kept) VHH: QVQLQESGGGLVQPGWSLRLSCAASSIFEINAMGWYRQPPGKQRERVATITDGFGTNYADSVKGRFTISRDNAKNTVYLQMNSLRPEDTAVYYCSAQRTVPYKMTYWGQGTQVTVSS | binds
20 | Nb63, strep-tagged (VHH, as the VHH of m13; also called strep-tagged Nb63; source: E. coli, purified (StrepTrap HP); not shown: strep-tag, C-terminal, kept) VHH: QVQLQESGGGLVQPGGSLRLSCVASGSTFAINVMGWYRRAPGKQRELVATVTSGSTTYSRVRSSDTTYADSVKGRFTISRDNAKNMVYLQMNSLKPEDTAVYYCNARTRNTIATSDGMDYWGKGTQVTVSS | binds
21 | Nb5, strep-tagged (VHH, as the VHH of m2; the printed oligo encodes the tag directly after the end of the nanobody; also called strep-tagged Nb5; source: E. coli, purified (StrepTrap HP); not shown: strep-tag, C-terminal, kept) VHH: QVQLQESGGGLVQAGGSLRLSCAASGTIISLNSMGWYRQAPGKQRELVAALTSGGTTNYADSVKGRFTISRVNAKNTVYLQMNSLKPEDTAVYYCNAKLITTAQGMVLASWGQGTQVTVSS | binds
22 | Nb48, strep-tagged (VHH, as the VHH of m12; also called strep-tagged Nb48; source: E. coli, purified (StrepTrap HP); not shown: strep-tag, C-terminal, kept) VHH: QVQLQESGGGSVQAGESLRLACAASGSILSINIMRWYRQAPGKQRELVATIGRSGNTDLADFAKGRFTGSRDNGKNTVYLQMNNLKPEDTAVYYCNALLTTLSAQTGVYWGQGTQVTVSS | binds
